This note sets out measurements from paper PMC3069011 (Molecular Biology of the Cell, 2011).

The assay deals with T1, GST-Nup88 (human, UniProt Q99567 1-741).
T1 sequence (looked up): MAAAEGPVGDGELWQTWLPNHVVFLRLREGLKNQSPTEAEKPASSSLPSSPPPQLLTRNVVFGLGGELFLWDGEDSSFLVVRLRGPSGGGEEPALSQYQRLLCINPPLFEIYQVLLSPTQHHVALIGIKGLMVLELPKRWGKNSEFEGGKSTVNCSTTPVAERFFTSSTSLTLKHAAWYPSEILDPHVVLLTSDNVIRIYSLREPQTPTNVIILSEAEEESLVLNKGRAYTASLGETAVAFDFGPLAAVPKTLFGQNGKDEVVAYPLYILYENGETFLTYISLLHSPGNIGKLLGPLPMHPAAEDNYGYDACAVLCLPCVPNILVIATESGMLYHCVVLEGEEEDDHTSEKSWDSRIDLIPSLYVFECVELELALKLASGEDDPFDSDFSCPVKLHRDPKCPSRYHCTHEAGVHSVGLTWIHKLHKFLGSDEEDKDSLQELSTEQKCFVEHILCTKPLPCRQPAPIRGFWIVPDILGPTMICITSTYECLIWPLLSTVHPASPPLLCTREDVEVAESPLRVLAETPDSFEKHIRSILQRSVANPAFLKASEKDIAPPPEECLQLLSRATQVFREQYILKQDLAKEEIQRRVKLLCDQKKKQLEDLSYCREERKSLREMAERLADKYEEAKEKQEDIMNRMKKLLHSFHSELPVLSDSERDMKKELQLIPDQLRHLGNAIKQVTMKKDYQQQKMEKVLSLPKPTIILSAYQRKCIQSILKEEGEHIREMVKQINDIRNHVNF
Kind of assay: far-Western, overlay or dot blot.

B1: lamin A tail (residues 243-664), bacterially expressed and purified (domain or fragment, human, UniProt P02545 243-664, looked up)
chain: DALQELRAQHEDQVEQYKKELEKTYSAKLDNARQSAERNSNLVGAAHEELQQSRIRIDSLSAQLSQLQKQLAAKEAKLRDLEDSLARERDTSRRLLAEKEREMAEMRARMQQQLDEYQELLDIKLALDMEIHAYRKLLEGEEERLRLSPSPTSQRSRGRASSHSSQTQGGGSVTKKRKLESTESRSSFSQHARTSGRVAVEEVDEEGKFVRLRNKSNEDQSMGNWQIKRQNGDDPLLTYRFPPKFTLKAGQVVTIWAAGAGATHSPPTDLVWKAQNTWGCGNSLRTALINSTGEEVAMRKLVRSVTVVEDDEDEDGDDLLHHHHGSHCSSSGDPAEYNLRSRTVLCGTCGQPADKASASGSGAQVGGPISSGSSASSVTVTRSYRSVGGSGGGSFGDNLVTRSYLLGNSSPRTQSPQNCSIM
Consider B1, for which the binding result is on record as “binds”.
